Data set [1] concerns the molecule itself. The data set can be described thus: homodimer formation, chemical crosslinking.
Data set [2] concerns the target T1, KDR (VEGFR-2) expressed on porcine aortic endothelial cells (UniProt P35968 20-1356, limits assumed).
T1 construct: whole, on cells; also called KDR/Flk-1; PAE-KDR cells
The data set can be described thus: Scatchard analysis with 125I-labelled ligand. As to the method: (§1) To study receptor binding, PAE/VEGFR-2 and PAE/VEGFR-3 cells were seeded into 24-well tissue culture plates (Nunclon), which had been coated with 2% gelatin in PBS. […] The binding was allowed to proceed at room temperature for 90 minutes. The plates were then transferred onto ice and washed three times with ice-cold PBS containing 0.1% BSA. The cells were then lysed in 1 M NaOH, the lysates were collected, and the radioactivity was measured using a γ-counter.

In data set [3] the target is T2, Flt4 receptor tyrosine kinase (VEGFR-3) expressed on cells (human, UniProt P35916 25-1363).
T2 construct: whole, on cells; also called LTRFlt4l; NIH 3T3-Flt4 cells
In words: Scatchard analysis with 125I-labelled ligand. The protocol: as §1

The data set “chemical crosslinking” deals with the molecule itself. The data set can be described thus: chemical crosslinking.
Data set [4] concerns the target T3, VEGFR-3EC-Ig (seven Ig loops of the VEGFR-3 extracellular domain fused to an immunoglobulin heavy chain … (UniProt P35916 25-775, limits assumed)).
T3 construct: domain: seven Ig loops of the extracellular domain; also called VEGFR-3EC domain; not shown: immunoglobulin heavy chain constant region, not specified
T3 sequence (looked up): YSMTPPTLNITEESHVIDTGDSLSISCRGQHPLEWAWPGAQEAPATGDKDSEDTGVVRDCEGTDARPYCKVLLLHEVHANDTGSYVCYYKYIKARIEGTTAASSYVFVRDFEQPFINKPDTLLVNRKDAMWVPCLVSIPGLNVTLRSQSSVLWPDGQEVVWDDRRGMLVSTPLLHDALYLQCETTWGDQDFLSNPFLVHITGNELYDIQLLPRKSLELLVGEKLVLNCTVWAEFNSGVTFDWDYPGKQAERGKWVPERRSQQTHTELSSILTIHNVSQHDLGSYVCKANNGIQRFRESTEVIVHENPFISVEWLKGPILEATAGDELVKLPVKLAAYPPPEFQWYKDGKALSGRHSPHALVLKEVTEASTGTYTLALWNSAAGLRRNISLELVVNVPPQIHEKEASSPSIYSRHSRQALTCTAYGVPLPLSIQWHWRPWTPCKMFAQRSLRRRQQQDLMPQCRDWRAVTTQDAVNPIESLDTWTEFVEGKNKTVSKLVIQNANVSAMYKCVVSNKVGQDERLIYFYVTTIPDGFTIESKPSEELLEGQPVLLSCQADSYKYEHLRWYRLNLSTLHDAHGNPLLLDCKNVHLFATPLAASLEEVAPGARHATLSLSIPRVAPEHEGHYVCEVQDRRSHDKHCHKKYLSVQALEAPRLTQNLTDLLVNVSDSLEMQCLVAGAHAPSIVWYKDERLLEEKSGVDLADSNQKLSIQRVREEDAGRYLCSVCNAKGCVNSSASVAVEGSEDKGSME
The data set can be described thus: receptor binding studies.

For data set [5], the target named is T4, VEGFR-2EC-Ig (three Ig loops of the VEGFR-2 extracellular domain fused to an immunoglobulin heavy chain … (UniProt P35968 20-327, limits assumed)).
T4 construct: domain: three Ig loops of the extracellular domain; also called VEGFR-2EC domain; not shown: immunoglobulin heavy chain constant region, not specified
In words: receptor binding studies.

For data set [6], the target named is T4, VEGFR-2EC-Ig (three Ig loops of the …). In words: pull-down of 35S-labelled protein with VEGFR-2EC-Ig. As to the method:
An aliquot of the transfected cells were metabolically labelled for 6 hours with 100 microcuries/ml of the PRO-MIX™ L-[^35S] in vitro cell labelling mix (Amersham).

The target of data set [7] is T1, KDR (VEGFR-2) expressed on porcine …. In words: competition with 125I-VEGF-CΔNΔCHis on PAE/VEGFR-2 cells. The protocol: as §1
The target in data set [8] is T5, Flt4 extracellular domain with C-terminal 6×His tag (Flt4EC), baculovirus-produced (human, UniProt P35916 25-775).
T5 construct: extracellular domain; also called Flt4EC-Sepharose
T5 sequence: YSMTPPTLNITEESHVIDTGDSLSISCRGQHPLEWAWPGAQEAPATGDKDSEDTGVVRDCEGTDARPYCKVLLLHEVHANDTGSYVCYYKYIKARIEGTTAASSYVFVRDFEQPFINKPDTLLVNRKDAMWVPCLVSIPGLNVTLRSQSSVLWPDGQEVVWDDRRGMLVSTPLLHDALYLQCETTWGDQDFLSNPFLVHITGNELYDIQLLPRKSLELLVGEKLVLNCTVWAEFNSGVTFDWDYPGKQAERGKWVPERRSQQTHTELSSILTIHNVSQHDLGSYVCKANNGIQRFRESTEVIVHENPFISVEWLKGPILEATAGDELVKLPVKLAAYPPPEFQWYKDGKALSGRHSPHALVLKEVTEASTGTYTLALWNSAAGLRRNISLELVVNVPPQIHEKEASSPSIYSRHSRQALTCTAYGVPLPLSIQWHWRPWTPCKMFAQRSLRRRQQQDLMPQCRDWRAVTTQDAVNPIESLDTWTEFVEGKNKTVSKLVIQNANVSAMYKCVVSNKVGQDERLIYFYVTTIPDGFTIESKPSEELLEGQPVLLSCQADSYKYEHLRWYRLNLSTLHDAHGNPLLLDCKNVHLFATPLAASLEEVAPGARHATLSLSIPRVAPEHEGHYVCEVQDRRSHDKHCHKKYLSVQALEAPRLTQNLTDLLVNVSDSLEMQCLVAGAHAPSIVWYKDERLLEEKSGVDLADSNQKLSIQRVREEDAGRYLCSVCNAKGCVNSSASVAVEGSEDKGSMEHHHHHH
In words: depletion of conditioned medium on Flt4EC-Sepharose.

The text below walks through data of patent US7423125.

What is called Kd is the concentration at which binding is half-saturated. Low readings indicate higher affinity, high ones lower affinity.

T1 sequence (P35968 20-1356 limits assumed): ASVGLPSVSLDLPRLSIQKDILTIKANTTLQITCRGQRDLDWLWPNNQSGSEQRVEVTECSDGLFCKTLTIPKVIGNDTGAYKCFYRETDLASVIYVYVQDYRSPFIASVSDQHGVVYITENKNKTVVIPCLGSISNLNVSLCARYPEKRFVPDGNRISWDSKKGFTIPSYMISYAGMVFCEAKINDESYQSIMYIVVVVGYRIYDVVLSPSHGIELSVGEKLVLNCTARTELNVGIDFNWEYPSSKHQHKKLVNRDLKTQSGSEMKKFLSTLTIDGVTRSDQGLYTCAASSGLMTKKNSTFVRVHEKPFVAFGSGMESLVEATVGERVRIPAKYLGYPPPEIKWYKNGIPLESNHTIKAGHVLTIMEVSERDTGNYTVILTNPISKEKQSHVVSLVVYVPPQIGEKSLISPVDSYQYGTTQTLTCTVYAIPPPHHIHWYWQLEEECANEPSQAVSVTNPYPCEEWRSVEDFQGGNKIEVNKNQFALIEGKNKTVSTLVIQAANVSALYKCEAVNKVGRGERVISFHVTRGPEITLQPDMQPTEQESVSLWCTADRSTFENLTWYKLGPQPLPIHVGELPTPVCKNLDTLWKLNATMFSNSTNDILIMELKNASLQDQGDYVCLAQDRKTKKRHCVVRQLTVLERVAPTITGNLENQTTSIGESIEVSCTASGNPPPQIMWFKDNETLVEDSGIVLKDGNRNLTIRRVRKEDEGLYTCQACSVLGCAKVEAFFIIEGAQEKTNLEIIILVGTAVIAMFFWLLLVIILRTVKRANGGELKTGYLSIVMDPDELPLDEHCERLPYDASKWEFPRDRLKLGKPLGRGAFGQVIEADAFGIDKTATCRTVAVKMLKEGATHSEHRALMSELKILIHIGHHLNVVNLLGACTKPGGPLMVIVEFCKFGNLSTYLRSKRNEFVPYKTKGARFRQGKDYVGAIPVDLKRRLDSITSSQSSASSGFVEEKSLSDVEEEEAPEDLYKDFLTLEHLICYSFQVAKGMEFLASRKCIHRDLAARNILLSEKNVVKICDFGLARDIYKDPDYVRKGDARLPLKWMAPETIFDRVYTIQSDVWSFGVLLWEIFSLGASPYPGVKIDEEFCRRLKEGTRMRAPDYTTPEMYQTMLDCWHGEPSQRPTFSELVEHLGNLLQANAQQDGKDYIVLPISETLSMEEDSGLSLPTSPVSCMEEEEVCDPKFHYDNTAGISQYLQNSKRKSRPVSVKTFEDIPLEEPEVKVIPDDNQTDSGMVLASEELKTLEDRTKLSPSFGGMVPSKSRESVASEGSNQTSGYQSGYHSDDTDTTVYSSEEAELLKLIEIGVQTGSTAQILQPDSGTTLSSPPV
T4 sequence (P35968 20-327 limits assumed): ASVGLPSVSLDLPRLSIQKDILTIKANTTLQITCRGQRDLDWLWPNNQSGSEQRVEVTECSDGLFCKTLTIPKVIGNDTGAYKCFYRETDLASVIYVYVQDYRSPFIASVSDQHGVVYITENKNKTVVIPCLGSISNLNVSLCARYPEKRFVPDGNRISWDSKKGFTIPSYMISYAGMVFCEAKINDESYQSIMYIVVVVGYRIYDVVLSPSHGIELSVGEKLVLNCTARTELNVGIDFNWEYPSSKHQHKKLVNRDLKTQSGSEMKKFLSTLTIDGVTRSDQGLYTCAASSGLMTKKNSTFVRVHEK

B1: VEGF-C ΔNΔCHis (ligand)
chain: TEETIKFAAAHYNTEILKSIDNEWRKTQCMPREVCIDVGKEFGVATNTFFKPPCVSVYRCGGCCNSEGLQCMNTSTSYLSKTLFEITVPLSQGPKPVTISFANHTSCRCMSKLDVYRQVHSIIHHHHHH
notes: the yeast protein was iodinated as tracer; also called VEGF-C ΔCΔNHis; recombinantly-matured VEGF-C
Turning to B1, in data set [1], the binding result is listed as “binds”. The dissociation constant (Kd) in data set [2] amounted to 0.41 nM; in data set [3], 0.135 nM.

B2: VEGF-CΔNΔCHis C165S (ligand)
chain: TEETIKFAAAHYNTEILKSIDNEWRKTQCMPREVCIDVGKEFGVATNTFFKPPCVSVYRCGGSCNSEGLQCMNTSTSYLSKTLFEITVPLSQGPKPVTISFANHTSCRCMSKLDVYRQVHSIIHHHHHH
notes: also called C165S form
On to B2, for which the binding result (in “chemical crosslinking”; in [4]; in [5]) was “no binding” each time.

B3: VEGF-CΔNΔCHis C156,165S (ligand)
chain: TEETIKFAAAHYNTEILKSIDNEWRKTQCMPREVCIDVGKEFGVATNTFFKPPSVSVYRCGGSCNSEGLQCMNTSTSYLSKTLFEITVPLSQGPKPVTISFANHTSCRCMSKLDVYRQVHSIIHHHHHH
notes: also called C156,165S form
Take B3: the binding result (in “chemical crosslinking”; in [4]; in [5]) was “no binding” each time.

B4: VEGF-CΔNΔCHis C156S (ligand)
chain: TEETIKFAAAHYNTEILKSIDNEWRKTQCMPREVCIDVGKEFGVATNTFFKPPSVSVYRCGGCCNSEGLQCMNTSTSYLSKTLFEITVPLSQGPKPVTISFANHTSCRCMSKLDVYRQVHSIIHHHHHH
notes: also called VEGF-CΔNΔCH is R156S (as printed once); VEGF-C ΔNΔC156S
For the molecule B4, the results for the binding result in [1], in data set [6] and in data set [7] were “binds”, “no binding” and “no binding”, respectively.

B5: VEGF-C R226,227S (ligand)
chain: FESGLDLSDAEPDAGEATAYASKDLEEQLRSVSSVDELMTVLYPEYWKMYKCQLRKGGWQHNREQANLNSRTEETIKFAAAHYNTEILKSIDNEWRKTQCMPREVCIDVGKEFGVATNTFFKPPCVSVYRCGGCCNSEGLQCMNTSTSYLSKTLFEITVPLSQGPKPVTISFANHTSCRCMSKLDVYRQVHSIISSSLPATLPQCQAANKTCPTNYMWNNHICRCLAQEDFMFSSDAGDDSTDGFHDICGPNKELDEETCQCVCRAGLRPASCGPHKELDRNSCQCVCKNKLFPSQCGANREFDENTCQCVCKRTCPRNQPLNPGKCACECTESPQKCLLKGKKFHHQTCSCYRRPCTNRQKACEPGFSYSEEVCRCVPSYWKRPQMS
notes: The C-terminal cleavage site is destroyed; N-terminal processing may still occur; also called non-processed VEGF-C R226,227S
With B5, the binding result in data set [7] is listed as “binds”.

B6: Flt4 ligand of about 23 kD from PC-3 cell conditioned medium (naturally processed VEGF-C) (ligand)
chain: TEETIKFAAAHYNTEILKSIDNEWRKTQCMPREVCIDVGKEFGVATNTFFKPPCVSVYRCGGCCNSEGLQCMNTSTSYLSKTLFEITVPLSQGPKPVTISFANHTSCRCMSKLDVYRQVHSIIRR
notes: also called 23 kD polypeptide; 21-23 kD form (PC-3)
On to B6, for which, in data set [8], the binding result is listed as “binds”.
